Laboratory results: patent US20120100561A1 (published 2012)

Biological target: T1, Flag-PKN3 wt (N-terminal Flag epitope-tagged full-length kinase active human PKN3) (human, UniProt Q6P5Z2 1-889)
T1 construct: Expressed from pcDNA3 in HEK293T or PC3 cells and pulled down with anti-Flag M2 resin; The kinase-dead version carries K588R; also called Flag-tagged PKN3; kinase-active form of PKN3
Test: anti-Flag M2 co-immunoprecipitation from transfected HEK293T cells, Western blot
Protocol: Thus, PKN3, RhoC and PDK1 form a ternary complex (“PPRC complex.”)
For immunoprecipitations with Flag (FIG. 4B), HEK293T cells (5×10⁵ cells/10-cm tissue culture dish) were either singly transfected or cotransfected with the indicated plasmids (Flag-PKN3 wt [full-length kinase active], Flag-PKN3 kd [kinase-dead PKN3], Myc-RhoA, Myc-RhoB or Myc-RhoC) by FUGENE® transfection reagent. After 6 hours of incubation at 37° C. in a 5% CO₂ incubator, cells were washed twice in serum-free Dulbecco's modified Eagle's medium (DMEM), and fresh medium (DMEM, 10% fetal bovine serum) was added to the cells for a further 48 h of incubation. Cells were washed with phosphate-buffered saline (PBS) and lysed in 0.5 ml of lysis buffer (50 mM Tris-HCl [pH 7.5], 150 mM NaCl, 10 mM β-glycerolphosphate, 10% glycerol, 1% Triton X-100, 1 mM Na₃VO₄, 1 mM NaF, and protease inhibitors [Roche Molecular Biochemicals]) for 30 minutes on ice. […] The beads were then washed three times with TBS buffer (50 mM Tris-HCl [pH 7.5], 150 mM NaCl), and bound proteins were eluted with TBS buffer containing 10% glycerol, 1 mM DTT and 200 μg of Flag peptide (Sigma)/ml. The bound products were visualized by Western blot analysis (FIG. 4).

T1 sequence (Q6P5Z2 other isoform, or with tags, fused parts or gaps limits assumed): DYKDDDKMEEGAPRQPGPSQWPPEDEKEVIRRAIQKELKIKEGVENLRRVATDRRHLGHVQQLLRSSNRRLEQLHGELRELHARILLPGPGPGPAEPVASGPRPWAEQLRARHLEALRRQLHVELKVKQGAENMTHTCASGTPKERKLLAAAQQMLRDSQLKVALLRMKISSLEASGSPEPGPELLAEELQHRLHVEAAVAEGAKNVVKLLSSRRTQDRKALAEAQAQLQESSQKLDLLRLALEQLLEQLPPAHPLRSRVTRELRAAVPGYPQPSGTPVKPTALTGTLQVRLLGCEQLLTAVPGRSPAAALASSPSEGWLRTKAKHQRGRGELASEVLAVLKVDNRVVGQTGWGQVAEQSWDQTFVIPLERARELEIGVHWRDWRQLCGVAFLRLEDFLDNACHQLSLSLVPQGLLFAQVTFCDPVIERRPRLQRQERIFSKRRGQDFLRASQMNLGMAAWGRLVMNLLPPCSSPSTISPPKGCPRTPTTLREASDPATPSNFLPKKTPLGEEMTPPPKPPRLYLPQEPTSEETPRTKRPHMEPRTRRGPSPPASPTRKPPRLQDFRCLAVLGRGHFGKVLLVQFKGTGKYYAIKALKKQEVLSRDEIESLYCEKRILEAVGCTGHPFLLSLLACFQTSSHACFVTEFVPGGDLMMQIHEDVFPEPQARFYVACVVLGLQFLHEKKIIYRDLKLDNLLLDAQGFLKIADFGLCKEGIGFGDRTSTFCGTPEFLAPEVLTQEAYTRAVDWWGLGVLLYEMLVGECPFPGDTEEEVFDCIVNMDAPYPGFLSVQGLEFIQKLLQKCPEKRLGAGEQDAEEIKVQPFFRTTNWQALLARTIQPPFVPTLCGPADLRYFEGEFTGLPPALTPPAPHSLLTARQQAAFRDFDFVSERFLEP

binding result: binds
B1: phosphoinositide-dependent kinase-1 (PDK1) (enzyme, UniProt O15530 1-556, looked up)
chain: MARTTSQLYDAVPIQSSVVLCSCPSPSMVRTQTESSTPPGIPGGSRQGPAMDGTAAEPRPGAGSLQHAQPPPQPRKKRPEDFKFGKILGEGSFSTVVLARELATSREYAIKILEKRHIIKENKVPYVTRERDVMSRLDHPFFVKLYFTFQDDEKLYFGLSYAKNGELLKYIRKIGSFDETCTRFYTAEIVSALEYLHGKGIIHRDLKPENILLNEDMHIQITDFGTAKVLSPESKQARANSFVGTAQYVSPELLTEKSACKSSDLWALGCIIYQLVAGLPPFRAGNEYLIFQKIIKLEYDFPEKFFPKARDLVEKLLVLDATKRLGCEEMEGYGPLKAHPFFESVTWENLHQQTPPKLTAYLPAMSEDDEDCYGNYDNLLSQFGCMQVSSSSSSHSLSASDTGLPQRSGSNIEQYIHDLDSNSFELDLQFSEDEKRLLLEKQAGGNPWHQFVENNLILKMGPVDKRKGLFARRRQLLLTEGPHLYYVDPVNKVLKGEIPWSQELRPEAKNFKTFFVHTPNRTYYLMDPSGNAHKWCRKIQEVWRQRYQSHPDAAVQ
notes: It co-precipitated with Flag-PKN3 from cell lysates
